Results published in patent US20160068605A1 (Janssen / Centocor, published 2016).
Residue numbers refer to the chain shown, from its start. One block for each binder: values may come before it.

Assays:
[1] = biological target: T1, human CD123 SP1 ECD displayed on pDisplay-transfected cells (human, UniProt P26951 20-305); assay: MSD cell binding on 293F pDisplay cells; fold change over background; parental 293F cells as control
T1 construct: ECD anchored on the surface of stably transfected HEK293 cells by the PDGFR transmembrane domain; also called hCD123 SP1 cells; hCD123 cells
T1 sequence: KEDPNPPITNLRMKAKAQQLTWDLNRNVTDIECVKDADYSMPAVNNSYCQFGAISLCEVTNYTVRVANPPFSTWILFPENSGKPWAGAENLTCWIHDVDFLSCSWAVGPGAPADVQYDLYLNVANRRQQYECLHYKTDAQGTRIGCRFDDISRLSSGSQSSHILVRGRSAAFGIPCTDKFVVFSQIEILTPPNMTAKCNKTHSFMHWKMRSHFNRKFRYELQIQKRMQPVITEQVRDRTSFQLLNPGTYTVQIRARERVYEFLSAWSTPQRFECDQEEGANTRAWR

[2] = biological target: T2, human CD123 SP2 ECD displayed on pDisplay-transfected cells (human, UniProt P26951 101-305); assay: as above
T2 construct: ECD anchored on the surface of stably transfected HEK293 cells; also called hCD123 SP2 cells; pDisplay CD123SP2
T2 sequence: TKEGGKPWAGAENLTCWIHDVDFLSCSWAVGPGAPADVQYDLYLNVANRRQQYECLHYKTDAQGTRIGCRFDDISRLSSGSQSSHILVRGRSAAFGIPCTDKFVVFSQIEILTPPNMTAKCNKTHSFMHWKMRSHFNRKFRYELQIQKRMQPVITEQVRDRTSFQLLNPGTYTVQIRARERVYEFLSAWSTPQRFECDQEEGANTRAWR

[3] = biological target: T3, cyno CD123 ECD displayed on pDisplay-transfected cells (cynomolgus monkey); assay: as above
T3 construct: ECD anchored on the surface of stably transfected HEK293 cells; also called cynoCD123 SP1 cells; cynoCD123 cells
T3 chain: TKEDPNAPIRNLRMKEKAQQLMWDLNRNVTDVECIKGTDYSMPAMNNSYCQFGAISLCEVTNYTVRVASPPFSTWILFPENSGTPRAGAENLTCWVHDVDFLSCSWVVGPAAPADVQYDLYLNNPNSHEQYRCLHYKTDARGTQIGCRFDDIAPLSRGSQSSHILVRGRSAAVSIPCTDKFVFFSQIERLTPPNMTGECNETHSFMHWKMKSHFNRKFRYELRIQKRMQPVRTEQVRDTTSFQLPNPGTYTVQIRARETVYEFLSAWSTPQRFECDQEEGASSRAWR

[4] = biological target: T4, Recombinant human CD123 SP1 ECD-His tag protein (human, UniProt P26951 20-305); assay: SPR Biacore 3000, captured Fab
T4 construct: bought from R&D Systems (#301-R3/CF); biotinylated for some assays; also called rhCD123 SP1; huCD123 ECD SP1
T4 sequence: T1 sequence
Procedure: (§1) Kinetic studies were performed at 25° C. using a Biacore 3000 (BIAcore, Inc., now part of GE Healthcare). […] Sheep anti-Human Fd specific antibody (The binding site Prod # PC075) was covalently attached to two flow cells (normally 3 and 4) of the carboxymethyl dextran coated gold surfaces (CM-5 Chip, Biacore). The carboxymethyl groups of dextran were activated with N-Ethyl-N′-(3-Dimethylaminopropyl)carbodiimide (EDC) and N-hydroxysuccinimide (NHS). The antibodies were coupled at pH 4.5 in 10 mM sodium acetate. Any remaining reactive sites on the surface were blocked by reaction with ethanolamine. […] Association data was collected for 2 min followed by 10 min of dissociation. The surface was regenerated with 30 μL of 100 mM H3PO4 100 μL/min. All samples were prepared in D-PBS containing 3 mM EDTA and 0.005% surfactant P20. Data reported is the difference in SPR signal between the flow cell containing the captured antibody or Fab and a reference cell without captured antibody or Fab. Additional instrumental contributions to the signal were removed by subtraction of the data from the blank injection from the reference-subtracted signal. Data were performed in triplicate and analyzed by fitting association and dissociation phases at all concentrations (global fit) with a 1:1 binding model using the BIAevaluation software (BIAcore, Inc.). […] Data presented is an average.

[5] = biological target: T5, Recombinant human CD123 SP2 ECD protein (human, UniProt P26951 101-303); assay: SPR Biacore 3000, captured Fab; footnote: assay response is lower than expected
T5 construct: also called rhCD123 SP2; CD123 ECD SP2
T5 sequence: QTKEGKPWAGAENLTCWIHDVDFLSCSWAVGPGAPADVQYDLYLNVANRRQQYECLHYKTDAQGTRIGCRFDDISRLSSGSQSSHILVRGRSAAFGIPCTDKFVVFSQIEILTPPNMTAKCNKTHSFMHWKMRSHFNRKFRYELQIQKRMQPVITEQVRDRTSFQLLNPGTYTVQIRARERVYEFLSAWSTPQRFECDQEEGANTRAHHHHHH
Procedure: as §1

[6] = biological target: T4, Recombinant human CD123 SP1 ECD-His tag …; assay: SPR ProteOn, captured mAb
[7] = biological target: T3, cyno CD123 ECD displayed on …; assay: MSD cell binding assay, signal 3x over background
Procedure: The object of the screening assay was to identify antibodies that bound to cells expressing hCD123 SP1 and SP2 as well as cross reactivity with cells expressing cynoCD123 SP1.
Cells were immobilized and phages were assayed in triplicate. […] 5000 cells per well were plated into a 384 well plate (MA6000, cat. L21XB, MSD) and allowed to adhere for 2 hr. Cells were then blocked with 20% FBS in PBS (Gibco) for 15 mins. Antibody supernatants were then added and left at RT for 1 hr. Cells were washed 3 times with PBS and a ruthenium labeled secondary antibody (Jackson Immuno Research) was then added at 1 μg/mL and incubated for 1 hr at room temperature. A further washing step was then applied and 35 μL per well of MSD Read buffer T (surfactant free) was then added and incubated for 30 min for detection. Plates were then read using Sector Imager 2400 (MSD). Data was normalized to controls and graphed using GraphPad Prism Version 5. A positive binder was determined to be a hit with a signal 3× greater than background (FIGS. 2A, B and C).

[8] = biological target: T3, cyno CD123 ECD displayed on …; assay: MSD-CAT on pDisplay cells
Procedure: (§2) After equilibration the plate was centrifuged for 5 min ˜1000 rpm and free anti-CD3 detected on the supernatant. […] The assay buffer was removed without washing and 50 μL/well of 0.7 μg/mL of biotinylated antigen in assay buffer were added to MSD plates and incubated overnight (˜16 hr at 4° C.). After overnight incubation, the plates were blocked by adding 150 μL/well of assay buffer without removing coating antigen, incubated for ˜1 hr at ambient temperature and washed 5 times with wash buffer (assay buffer without BSA). 50 μL/well of the supernantants from samples plate were transferred to antigen-coated plates, incubated for 60 min, and then washed three times with wash Buffer. After this 50 μL per well of ruthenium labeled detection antibody(anti-human H+L) were added and incubated for 1 hr. After 1 hr the plates were washed and 150 μL of MSD Read Buffer (prepared by diluting 1:4 of stock into d. H₂O) were added per well. The plates were read immediately on the MSD Sector Imager 6000 Reader for luminescence levels. ECL signal detected by MSD was expressed in term of % free antibody in the mixture and the data was analyzed to determine affinity using a user defined equation (derived from the law of mass action) introduced in Prism software.

[9] = biological target: T1, human CD123 SP1 ECD displayed on …; assay: MSD-CAT, hCD123 cells, assay-2, fit with parameter Bo constrained
Procedure: as §2

[10] = biological target: T3, cyno CD123 ECD displayed on …; assay: MSD-CAT, cynoCD123 cells, assay-2
Procedure: (§3) The MSD-CAT was developed in-house as a label-free method to determine affinity using intact cells in a high throughput format. […] Cell lines used were human pDisplay CD and cyno pDisplay CD123SP1. […] These samples were prepared in DMEM Glutamax medium containing 0.05% Azide, 1% BSA, 3 mM EDTA. The receptor numbers of (3.15-4.18)×10⁶ hCD123/cell and (4.78-9.24) 10⁶ cyCD123/cell were converted to M receptor concentration in the mixture on the basis of the volume of reaction, the cell density (cells/L) and the Avogadro's number. […] After equilibration the plate was centrifuged for 5 min ˜1000 rpm and free anti-CD3 detected on the supernatant.

[11] = biological target: T1, human CD123 SP1 ECD displayed on …; assay: MSD-CAT, hCD123 cells, assay-2
Procedure: as §2

[12] = biological target: T5, Recombinant human CD123 SP2 ECD protein; assay: SPR Biacore 3000, captured Fab
Procedure: as §1

[13] = biological target: T1, human CD123 SP1 ECD displayed on …; assay: MSD-CAT, hCD123 cells, assay-1, fit with parameter Bo constrained
Procedure: as §2

[14] = biological target: T1, human CD123 SP1 ECD displayed on …; assay: MSD-CAT, hCD123 cells, assay-1
Procedure: as §2

[15] = biological target: T3, cyno CD123 ECD displayed on …; assay: MSD-CAT, cynoCD123 cells, assay-1
Procedure: as §3

[16] = biological target: IL3RA-PK (CD123 tagged with ProLink) in HEK293 IL3RA-PK/CSF2RB-EA cells (UniProt P26951 19-378); assay: cell-based or functional assay

B3: I3RB21 (antibody, IgG1, V domains shown)
VH: QVQLVQSGAEVKKPGSSVKVSCKASGGTFSSYAISWVRQAPGQGLEWMGGIIPIFGTANYAQKFQGRVTITADESTSTAYMELSSLRSEDTAVYYCAREGWWGQGKFDYWGQGTLVTVSS
VL: EIVLTQSPATLSLSPGERATLSCRASQSVANFLAWYQQKPGQAPRLLIYAASNRATGIPARFSGSGSGTDFTLTISSLEPEDFAVYYCQQYFHWPYTFGQGTKVEIK
notes: IgG1
Kd [6]: 2.19 nM
koff [6]: 0.00114 s⁻¹
kon [6]: 521000 M⁻¹ s⁻¹
binding result [7]: binds

B4: I3RB120 (Fab, V domains shown)
VH: EVQLLESGGGLVQPGGSLRLSCAASGFTFSGYWMHWVRQAPGKGLEWVSAIRSDGSSKYYADSVKGRFTISRDNSKNTLYLQMNSLRAEDTAVYYCAKDGVIEDTFDYWGQGTLVTVSS
VL: B3 VL with A30S, N31S, F32Y, A50D, Y91R, F92S, H93N, Y96L
notes: also called Fab I3RB120; I3RB2 Fab
fold difference of affinity against human CD123 SP1 [8]: < 5 fold
Kd [9]: 3.81 nM
Kd [10]: > 11.9 nM
Kd [11]: ~3.84 nM
Kd [12]: 1.4 nM
Kd [4]: 8.5 nM
koff [4]: 0.00304 s⁻¹
kon [4]: 357000 M⁻¹ s⁻¹
Kd [13]: 344 nM
Kd [14]: ~0.00337 nM
Kd [15]: 2.4 nM

B6: I3RB119 (Fab, V domains shown)
VH: EVQLVQSGAEVKKPGESLKISCKGSGYSFTSYWISWVRQMPGKGLEWMGIIDPSDSDTRYSPSFQGQVTISADKSISTAYLQWSSLKASDTAMYYCARGDGSTDLDYWGQGTLVTVSS
VL: EIVLTQSPGTLSLSPGERATLSCRASQSVSSSYLAWYQQKPGQAPRLLIYGASSRATGIPDRFSGSGSGTDFTLTISRLEPEDFAVYYCQQDYGFPWTFGQGTKVEIK
notes: also called Fab I3RB119; I3RB18 Fab
fold weaker than to human CD123 SP1 [8]: > 10 fold
Kd [10]: > 11.9 nM
Kd [11]: 0.367 nM
Kd [12]: 0.4 nM
Kd [4]: 1.8 nM
koff [4]: 0.000891 s⁻¹
kon [4]: 493000 M⁻¹ s⁻¹
Kd [14]: 0.293 nM
Kd [15]: > 15 nM

Next, values leading:

binding result [1]: no binding (tested: 10 µg/mL)
binding result [2]: no binding (tested: 10 µg/mL)
binding result [3]: no binding (tested: 10 µg/mL)
B1: I3RB25 (antibody, V domains shown)
VH: QVQLVQSGAEVKKPGSSVKVSCKASGGTFSSYGISWVRQAPGQGLEWMGGISAIFGNANYAQKFQGRVTITADESTSTAYMELSSLRSEDTAVYYCARRFKWWESYFDYWGQGTLVTVSS
VL: not shown

Kd [4]: 6.3 nM
koff [4]: 0.00245 s⁻¹
kon [4]: 387000 M⁻¹ s⁻¹
Kd [5]: 1.2 nM
B2: I3RB121 (Fab, V domains shown)
VH: B3 VH with E99H, G100L, W101F, G103D, Q104A, K106P, F107L
VL: DIQMTQSPSSLSASVGDRVTITCRASQSISSYLNWYQQKPGKAPKLLIYAASSLQSGVPSRFSGSGSGTDFTLTISSLQPEDFATYYCQQYFSPPYTFGQGTKVEIK
notes: also called Fab of I3RB35

IC50 (read off the curve): IL-3-induced CD123/CD131 heteromerization (RLU) [16]: ~0.1 µg/mL
B5: I3RB217 (antibody, human IgG4 S228P, kappa, F234A L235A, V domains shown)
VH: B6 VH
VL: EIVLTQSPGTLSLSPGERATLSCRASQSVSSSYLAWYQQKPGQAPRLLIYGASSRATGIPDRFSGSGSGTDFTLTISRLEPEDFAVYYCQQDYGFPWTFGQGTKVEIKR
